According to US20180148504A1 (EISAI R AND D MANAGEMENT, published 2018):

B1: Monoclonal antibody 1C6.E12.G8 (antibody, mouse IgG1, V domains shown)
VH: SGARELVKPGASVKLSCKTSGFTFNSSYITWLKQKPGQSLEWIAWIYAGNGGTTYNQKFTGKAQLTVDTSSSTAYMQFSSLTTEDSAIYYCASETYTNYWYFDVWGSGTTVTVSS
VL: QSPASLSASVGETVTITCRASGNIHNYLAWYQQKQGKSPQLLVYNAKTLADGVPSRFSGSGSGTQYSLKINSLQPEDFGSYYCQHFWSTPYTFGGGTKLEIK
notes: Murine IgG1 kappa from hybridoma; also called ATCC PTA-123091
B2: Monoclonal antibody 6A2.G7 (antibody, mouse IgG1, V domains shown)
VH: GADLVKPGASVKMSCKASGYTFSRYNMHWVKQTPGQGLEWIGTIYPGNGDTSYNEKFKGKATLTADKSSSIVYMQVSSLTSEASAVYYCARDYGSRYALDYWGQGTSVTVSS
VL: SSLSASLGDRVTISCRASQDISNYLNWYQQKPDGTVKLLIYYTSRLHSGVPSRFSGSGSGTDYSLTISNLEQEDIATYFCQQGNTLPYTFGGGTKLEIK
notes: Murine IgG1 kappa from hybridoma; also called ATCC PTA-123093
B3: Monoclonal antibody 5C12.H8 (antibody, mouse IgG2b, V domains shown)
VH: GPGLVKPSQSLSLTCSVTGYSITSGYYWIWIRQFPGNKLEWMGYISYDGSNNYNPSLKNRISITRDTSKNQFFLKLNSVTTEDTATYYCARGNYYAMDYWGQGTSVTVSS
VL: not shown
notes: Murine IgG2b kappa from hybridoma; also called ATCC PTA-123095

Assays:
[1] = target: T1, recombinant purified FRα (ECL assay calibrator) (human, UniProt P15328 25-234); assay: ECL sandwich, FRα calibrator; capture 19D2.G9; binder = detection Ab
T1 construct: Calibrator of the ECL sandwich assays; also called FRα calibrator; FRα standard

[2] = target: T1, recombinant purified FRα (ECL assay …); assay: ECL sandwich on FRα, signal to background; capture 30G6.G6.G4.E9; binder = detection Ab
[3] = target: T1, recombinant purified FRα (ECL assay …); assay: ECL sandwich on FRα, signal to background; capture 28H12.G9; binder = detection Ab
[4] = target: T1, recombinant purified FRα (ECL assay …); assay: ECL sandwich on FRα, signal to background; capture 26A9.C4; binder = detection Ab
[5] = target: T1, recombinant purified FRα (ECL assay …); assay: ECL sandwich, FRα calibrator; capture 5C12.H8; binder = detection Ab
[6] = target: T1, recombinant purified FRα (ECL assay …); assay: ECL sandwich on FRα, signal to background; capture 1C6.E12.G8; binder = detection Ab
[7] = target: T1, recombinant purified FRα (ECL assay …); assay: ECL sandwich on FRα, signal to background; capture 5C12.H8; binder = detection Ab
[8] = target: T1, recombinant purified FRα (ECL assay …); assay: ECL sandwich, FRα calibrator; capture 28H12.G9; binder = detection Ab
[9] = target: T2, recombinant human folate receptor alpha (rhFRα) (human, UniProt P15328 25-234); assay: BIAcore (SPR), format not described
T2 construct: CHO: Ig kappa leader, C-terminal 6xHis replacing the GPI attachment site; also called FOLR1; FOLR-1

[10] = target: T1, recombinant purified FRα (ECL assay …); assay: ECL sandwich on FRα, signal to background; capture 19D2.G9; binder = detection Ab
[11] = target: T3, human folate receptor beta (FRβ), recombinant, C-terminal 6xHis (human, UniProt P14207 17-230, limits assumed); assay: direct ELISA, plates coated with 1 µg/mL FR isoform, dilution series of culture supernatant
T3 construct: Transiently expressed in 293F cells and purified; coated on ELISA plates

[12] = target: T4, human folate receptor gamma (FRγ), recombinant, C-terminal 6xHis (human, UniProt P41439 23-245, limits assumed); assay: as above
T4 construct: Transiently expressed in 293F cells and purified; coated on ELISA plates

[13] = target: T1, recombinant purified FRα (ECL assay …); assay: ECL sandwich on FRα, signal to background; capture 1A8.G11.E7; binder = detection Ab
[14] = target: T1, recombinant purified FRα (ECL assay …); assay: ECL sandwich, FRα calibrator; capture 2F11.F8; binder = detection Ab
[15] = target: T1, recombinant purified FRα (ECL assay …); assay: ECL sandwich, FRα calibrator; capture 26A9.C4; binder = detection Ab
[16] = target: T1, recombinant purified FRα (ECL assay …); assay: ECL sandwich on FRα, signal to background; capture 1D2.G8.G10; binder = detection Ab
[17] = target: T1, recombinant purified FRα (ECL assay …); assay: ECL sandwich, FRα calibrator; capture 24H8.D3; binder = detection Ab
[18] = target: T1, recombinant purified FRα (ECL assay …); assay: ECL sandwich, FRα calibrator; capture 30G6.G6.G4.E9; binder = detection Ab
[19] = target: T1, recombinant purified FRα (ECL assay …); assay: ECL sandwich on FRα, signal to background; capture 24H8.F3; binder = detection Ab
[20] = target: T1, recombinant purified FRα (ECL assay …); assay: ECL sandwich on FRα, signal to background; capture 2F11.F8; binder = detection Ab
[21] = target: T1, recombinant purified FRα (ECL assay …); assay: ECL sandwich, FRα calibrator; capture 19D4.B7; binder = detection Ab
[22] = target: T1, recombinant purified FRα (ECL assay …); assay: ECL sandwich on FRα, signal to background; capture 24H8.D3; binder = detection Ab
[23] = target: T1, recombinant purified FRα (ECL assay …); assay: ECL sandwich, FRα calibrator; capture 1A8.G11.E7; binder = detection Ab
[24] = target: T1, recombinant purified FRα (ECL assay …); assay: ECL sandwich on FRα, signal to background; capture 19D4.B7; binder = detection Ab
[25] = target: T1, recombinant purified FRα (ECL assay …); assay: ECL sandwich, FRα calibrator; capture 24H8.F3; binder = detection Ab
[26] = target: T1, recombinant purified FRα (ECL assay …); assay: ECL sandwich, FRα calibrator; capture 1D2.G8.G10; binder = detection Ab
[27] = target: T1, recombinant purified FRα (ECL assay …); assay: ECL sandwich, FRα calibrator; capture 6A2.G7; binder = detection Ab
[28] = target: T1, recombinant purified FRα (ECL assay …); assay: ECL sandwich on FRα, signal to background; capture 6A2.G7; binder = detection Ab
[29] = target: T1, recombinant purified FRα (ECL assay …); assay: ECL sandwich, FRα calibrator; capture 1C6.E12.G8; binder = detection Ab

T4 sequence (P41439 other isoform, or with tags, fused parts or gaps limits assumed): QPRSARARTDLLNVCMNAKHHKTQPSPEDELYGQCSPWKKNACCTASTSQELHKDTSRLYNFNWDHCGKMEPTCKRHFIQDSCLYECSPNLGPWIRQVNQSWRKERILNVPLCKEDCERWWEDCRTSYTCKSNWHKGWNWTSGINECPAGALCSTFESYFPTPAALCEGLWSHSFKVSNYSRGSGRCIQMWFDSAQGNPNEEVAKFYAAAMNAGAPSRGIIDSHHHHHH
T3 sequence (P14207 other isoform, or with tags, fused parts or gaps limits assumed): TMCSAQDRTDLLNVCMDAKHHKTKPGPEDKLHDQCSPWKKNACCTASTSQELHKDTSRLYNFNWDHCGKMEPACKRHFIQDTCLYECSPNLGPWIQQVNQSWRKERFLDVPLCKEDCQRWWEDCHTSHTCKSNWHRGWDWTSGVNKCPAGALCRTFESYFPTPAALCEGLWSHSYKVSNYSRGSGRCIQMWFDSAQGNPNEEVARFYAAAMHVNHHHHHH
T1 sequence (P15328 25-234 limits assumed): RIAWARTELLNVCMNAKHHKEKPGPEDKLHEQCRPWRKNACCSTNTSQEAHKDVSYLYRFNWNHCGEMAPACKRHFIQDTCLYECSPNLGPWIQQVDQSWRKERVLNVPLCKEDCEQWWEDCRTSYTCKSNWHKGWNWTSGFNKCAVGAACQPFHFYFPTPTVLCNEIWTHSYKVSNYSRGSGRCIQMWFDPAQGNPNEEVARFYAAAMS
T2 sequence (P15328 25-234 limits assumed): as above

| Binder | Specific signal at 500 pg/mL [1] | Average of S/B [2] | Average of S/B [3] | Average of S/B [4] | Specific signal at 500 pg/mL [5] | Average of S/B [6] | Average of S/B [7] | Specific signal at 500 pg/mL [8] | Kd [9] | Average of S/B [10] | binding result [11] | binding result [12] | Average of S/B [13] | Specific signal at 500 pg/mL [14] | Specific signal at 500 pg/mL [15] | Average of S/B [16] | Specific signal at 500 pg/mL [17] | Specific signal at 500 pg/mL [18] | Average of S/B [19] | Average of S/B [20] | also measured |
| --- | --- | --- | --- | --- | --- | --- | --- | --- | --- | --- | --- | --- | --- | --- | --- | --- | --- | --- | --- | --- | --- |
| B1 | 80 | 144 | 1 | 1 | 70 | 1 | 1 | 92 | 0.00976 µM | 1 | no binding | no binding | 1 | 67 | 73 | 1 | 74 | 10900 | 1 | 1 | Specific signal at 500 pg/mL [21]: 37500; Average of S/B [22]: 1; Specific signal at 500 pg/mL [23]: 54; Average of S/B [24]: 449; Specific signal at 500 pg/mL [25]: 75; Specific signal at 500 pg/mL [26]: 53; Specific signal at 500 pg/mL [27]: 967; Average of S/B [28]: 19; Specific signal at 500 pg/mL [29]: 86 |
| B2 | 11700 | 31 | 7 | 4 | 100 | 3 | 1 | 432 | 0.015 µM | 205 | no binding | no binding | 89 | 283 | 347 | 5 | 6620 | 2410 | 63 | 5 | Specific signal at 500 pg/mL [21]: 10800; Average of S/B [22]: 109; Specific signal at 500 pg/mL [23]: 6000; Average of S/B [24]: 145; Specific signal at 500 pg/mL [25]: 3890; Specific signal at 500 pg/mL [26]: 347; Specific signal at 500 pg/mL [27]: 92; Average of S/B [28]: 1; Specific signal at 500 pg/mL [29]: 217 |
| B3 | 77 | 61 | 1 | 1 | 100 | 1 | 1 | 68 | 0.0108 µM | 1 | no binding | no binding | 1 | 123 | 78 | 1 | 71 | 5290 | 1 | 1 | Specific signal at 500 pg/mL [21]: 18400; Average of S/B [22]: 1; Specific signal at 500 pg/mL [23]: 66; Average of S/B [24]: 253; Specific signal at 500 pg/mL [25]: 60; Specific signal at 500 pg/mL [26]: 57; Specific signal at 500 pg/mL [27]: 596; Average of S/B [28]: 9; Specific signal at 500 pg/mL [29]: 58 |
